In publication doi:10.1101/2025.06.24.660003:

Biological target: human plasma glycoproteins
Assay: far-Western, overlay or dot blot; human or rat plasma diluted 1:10, boiled with LDS sample buffer and 50 mM DTT, separated on 3-8% polyacrylamide gradient gels, transferred to BioTraceNT; GST-SLBR 5 nM in DPBS with 1x Blocking Reagent, 90 min, room temperature; detected with anti-GST

## GST-tagged Siglec-like binding region of Hsa, V370F mutant (from UniProt A8AWU7 220-453) (domain or fragment)
  fold decrease in total binding against wild type: 3 fold
